Assay results as given in publication PMC10698503, “Phosphatase specificity principles uncovered by MRBLE:Dephos and global substrate identification” (Molecular Systems Biology, 2023).

Legend:
Venus-PP1 = assay: Affinity purification (pulldown) of YFP/Venus-PP1 from mitotic cells, label-free LC-MS/MS; assay type: binding, human; settings: for B55 or PP1?: assignment of the co-purified protein as interactor of Venus-B55 and/or Venus-PP1 (both pulldowns); for log2 ratio [Venus-PP1/Venus]: enrichment in Venus-PP1 pulldown over Venus control, from 3 replicates each; for log2 IBAQ [Venus-PP1 1] / log2 IBAQ [Venus-PP1 2] / log2 IBAQ [Venus-PP1 3]: pulldown of Venus-PP1 from mitotic cells, label-free LC-MS/MS, log2 IBAQ of co-purified protein; for log2 IBAQ [Venus-PP1 1]: replicate 1; for log2 IBAQ [Venus-PP1 2]: replicate 2; for log2 IBAQ [Venus-PP1 3]: replicate 3
Text: (§1) We defined interactomes of PP1γ and B55α during mitosis using affinity purification of YFP‐tagged subunits and also proximity‐dependent ligation using miniTurbo to capture interactions at mitotic exit (Appendix Fig S8) (Branon et al, [2018]; Sears et al, [2019]). […] These identified proteins can constitute both regulators and substrates. […] To understand how these protein interactions might shape dephosphorylation, we first aimed at generating interactome networks and overlay regulated sites. We integrated interactomes and information from the STRING database (Szklarczyk et al, [2023]) with our regulated phosphorylation sites to generate a network of complexes and dephosphorylation sites (Fig 4C and Appendix Fig S9A). For PP1, we also integrated information on known and predicted RVxF motifs (Smith et al, [2019]). […] As an example, CASC5 (KNL1) could scaffold PP1 dephosphorylation of CENPC S261, a phosphorylation site in a nuclear localization sequence. In agreement with previous work, PP2A‐B55 regulated dephosphorylation of several nucleoporins at mitotic exit consistent with Nup153 and TPR being present in the interactomes (Cundell et al, [2016]).
(§2) PP1 and B55 cDNAs were cloned into modified versions of pcDNA5/FRT/TO (Invitrogen) to make N‐terminal fusions to YFP, BioID, or TurboID. Stable cell lines were generated into HeLa/FRT/TRex cells (kind gift from S. Taylor), and for YFP affinity, purification cells were synchronized with thymidine and released into nocodazole‐containing media to arrest them in mitosis. Cells were resuspended in lysis buffer (50 mM NaCl, 50 mM Tris 7,4, 1 mM EDTA, 0.1% NP40, 1 mM DTT, and protease inhibitor cocktail), and following sonication, the lysate was clarified by centrifugation. Cell lysate was incubated with GFP‐Trap beads (Chromotek) for 1 h, washed 3 × 1 ml with lysis buffer, and resuspended in SDS–PAGE loading buffer.
(§3) The Q‐Exactive Plus was set to perform an Orbitrap MS1 scan (R = 70 K; AGC target = 1e6) from 350 to 1,500 m/z, followed by HCD MS2 spectra on the 10 most abundant precursor ions detected by Orbitrap scanning (R = 17.5 K; AGC target = 1e5; max ion time = 50 ms) before repeating the cycle. Precursor ions were isolated for HCD by quadrupole isolation at width = 1 m/z and HCD fragmentation at 26 normalized collision energy (NCE). Charge state 2, 3, and 4 ions were selected for MS2. Precursor ions were added to a dynamic exclusion list ± 20 ppm for 15 s. […] Static modifications included carbamidomethylcysteine and variable modifications included oxidized methionine. […] Missing values were imputed from a normal distribution in Perseus to enable statistical analysis and visualization by volcano plot (Tyanova et al, [2016]). Statistical analysis was carried out in Perseus by two‐tailed Student's t‐test.

Venus-B55 = assay: Affinity purification (pulldown) of YFP/Venus-B55 from mitotic cells, label-free LC-MS/MS; assay type: binding, human; settings: for log2 ratio [Venus-B55/Venus]: enrichment in Venus-B55 pulldown over Venus control, from 3 replicates each; for log2 IBAQ [Venus-B55 1] / log2 IBAQ [Venus-B55 2] / log2 IBAQ [Venus-B55 3]: pulldown of Venus-B55 from mitotic cells, label-free LC-MS/MS, log2 IBAQ of co-purified protein; for log2 IBAQ [Venus-B55 1]: replicate 1; for log2 IBAQ [Venus-B55 2]: replicate 2; for log2 IBAQ [Venus-B55 3]: replicate 3
Text: as §1, §2, §3

B1: EBP2_HUMAN (protein, UniProt Q99848 1-306, looked up)
Probable rRNA-processing …: MDTPPLSDSESESDESLVTDRELQDAFSRGLLKPGLNVVLEGPKKAVNDVNGLKQCLAEFKRDLEWVERLDVTLGPVPEIGGSEAPAPQNKDQKAVDPEDDFQREMSFYRQAQAAVLAVLPRLHQLKVPTKRPTDYFAEMAKSDLQMQKIRQKLQTKQAAMERSEKAKQLRALRKYGKKVQTEVLQKRQQEKAHMMNAIKKYQKGFSDKLDFLEGDQKPLAQRKKAGAKGQQMRKGPSAKRRYKNQKFGFGGKKKGSKWNTRESYDDVSSFRAKTAHGRGLKRPGKKGSNKRPGKRTREKMKNRTH
How did the “B55 or PP1?” value (Venus-PP1) turn out when B1 was run?
Its value is “B55/PP1”.

What about the “log2 ratio [Venus-PP1/Venus]” value (Venus-PP1) of the same molecule?
Its value is 6.44.

What about the “log2 IBAQ [Venus-PP1 1]” value (Venus-PP1) of the same molecule?
Its value is 24.17.

And the “log2 IBAQ [Venus-PP1 2]” value (Venus-PP1)?
The value was 24.63.

And the “log2 IBAQ [Venus-PP1 3]” value (Venus-PP1)?
The value was 27.56.

What about the “log2 ratio [Venus-B55/Venus]” value (Venus-B55) of the same molecule?
Its value is 1.82.

What about the “log2 IBAQ [Venus-B55 1]” value (Venus-B55) of the same molecule?
Its value is 20.14.

And the “log2 IBAQ [Venus-B55 2]” value (Venus-B55)?
Its value is 18.75.

What about the “log2 IBAQ [Venus-B55 3]” value (Venus-B55) of the same molecule?
Its value is 20.44.

B2: SF01_HUMAN (protein, UniProt Q15637 2-639, looked up)
Splicing factor 1: ATGANATPLDFPSKKRKRSRWNQDTMEQKTVIPGMPTVIPPGLTREQERAYIVQLQIEDLTRKLRTGDLGIPPNPEDRSPSPEPIYNSEGKRLNTREFRTRKKLEEERHNLITEMVALNPDFKPPADYKPPATRVSDKVMIPQDEYPEINFVGLLIGPRGNTLKNIEKECNAKIMIRGKGSVKEGKVGRKDGQMLPGEDEPLHALVTANTMENVKKAVEQIRNILKQGIETPEDQNDLRKMQLRELARLNGTLREDDNRILRPWQSSETRSITNTTVCTKCGGAGHIASDCKFQRPGDPQSAQDKARMDKEYLSLMAELGEAPVPASVGSTSGPATTPLASAPRPAAPANNPPPPSLMSTTQSRPPWMNSGPSESRPYHGMHGGGPGGPGGGPHSFPHPLPSLTGGHGGHPMQHNPNGPPPPWMQPPPPPMNQGPHPPGHHGPPPMDQYLGSTPVGSGVYRLHQGKGMMPPPPMGMMPPPPPPPSGQPPPPPSGPLPPWQQQQQQPPPPPPPSSSMASSTPLPWQQNTTTTTTSAGTGSIPPWQQQQAAAAASPGAPQMQGNPTMVPLPPGVQPPLPPGAPPPPPPPPPGSAGMMYAPPPPPPPPMDPSNFVTMMGMGVAGMPPFGMPPAPPPPPPQN
B2 was tested. Which “B55 or PP1?” value (Venus-PP1) did it give?
Its value is “B55/PP1”.

What about the “log2 ratio [Venus-PP1/Venus]” value (Venus-PP1) of the same molecule?
Its value is 4.15.

And the “log2 IBAQ [Venus-PP1 1]” value (Venus-PP1)?
The value was 19.13.

What about the “log2 IBAQ [Venus-PP1 2]” value (Venus-PP1) of the same molecule?
Its value is 19.69.

What about the “log2 IBAQ [Venus-PP1 3]” value (Venus-PP1) of the same molecule?
Its value is 20.57.

And the “log2 ratio [Venus-B55/Venus]” value (Venus-B55)?
The value was 3.74.

What about the “log2 IBAQ [Venus-B55 1]” value (Venus-B55) of the same molecule?
Its value is 18.20.

And the “log2 IBAQ [Venus-B55 2]” value (Venus-B55)?
Its value is 19.35.

What about the “log2 IBAQ [Venus-B55 3]” value (Venus-B55) of the same molecule?
The value was 19.45.

B3: GAR1_HUMAN (protein, UniProt Q9NY12 1-217, looked up)
H/ACA ribonucleoprotein …: MSFRGGGRGGFNRGGGGGGFNRGGSSNHFRGGGGGGGGGNFRGGGRGGFGRGGGRGGFNKGQDQGPPERVVLLGEFLHPCEDDIVCKCTTDENKVPYFNAPVYLENKEQIGKVDEIFGQLRDFYFSVKLSENMKASSFKKLQKFYIDPYKLLPLQRFLPRPPGEKGPPRGGGRGGRGGGRGGGGRGGGRGGGFRGGRGGGGGGFRGGRGGGFRGRGH
Which “B55 or PP1?” value (Venus-PP1) does the source give for B3 here?
The value was “B55/PP1”.

What about the “log2 ratio [Venus-PP1/Venus]” value (Venus-PP1) of the same molecule?
Its value is 5.49.

And the “log2 IBAQ [Venus-PP1 1]” value (Venus-PP1)?
The value was 19.45.

What about the “log2 IBAQ [Venus-PP1 2]” value (Venus-PP1) of the same molecule?
Its value is 19.86.

And the “log2 IBAQ [Venus-PP1 3]” value (Venus-PP1)?
The value was 24.60.

And the “log2 ratio [Venus-B55/Venus]” value (Venus-B55)?
The value was 3.89.

And the “log2 IBAQ [Venus-B55 1]” value (Venus-B55)?
The value was 18.68.

And the “log2 IBAQ [Venus-B55 2]” value (Venus-B55)?
Its value is 18.13.

And the “log2 IBAQ [Venus-B55 3]” value (Venus-B55)?
Its value is 17.35.
